The source of these data is patent publication US20200317768A1 (published 2020).

For orientation: Kd means the concentration at which binding is half-saturated.

In assay [1] the target is T1, human FcγRIIIaV extracellular domain, His-tagged (human, UniProt P08637 17-208).
T1 construct: also called FcgRIIIaV
Nature of the assay: SPR, antibody captured, FcgR analyte.

For assay [2], the target named is T2, cynomolgus monkey FcγRIIa2 extracellular domain, C-terminal His-tag (cynomolgus monkey).
T2 construct: also called cyno FcγRIIa2; cynoFcgRIIa2
T2 chain: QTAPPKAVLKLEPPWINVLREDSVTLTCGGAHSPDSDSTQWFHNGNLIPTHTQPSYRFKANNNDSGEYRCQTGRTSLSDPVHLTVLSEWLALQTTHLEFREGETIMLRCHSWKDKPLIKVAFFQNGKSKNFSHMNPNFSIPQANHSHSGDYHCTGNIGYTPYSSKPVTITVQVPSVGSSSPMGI
Nature of the assay: SPR (Biacore); KD of SG1 / KD of variant.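 Also: relative to parent M103205H795-SG1 carrying the SG1 human heavy chain constant region.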 The protocol:
(§1) The kinetic analysis of interactions between these antibodies and FcγR was carried out using BIACORE® T200 or BIACORE® 4000 (GE Healthcare). HBS-EP+ (GE Healthcare) was used as the running buffer, and the measurement temperature was set to 25° C. A chip produced by immobilizing Protein A. Protein A/G or mouse anti-human IgG kappa light chain (BD Biosciences) onto a Series S Sensor Chip CM4 or CM5 (GE Healthcare) by the amine-coupling method was used. […] After the measurement, the antibody captured on the chip was washed off by allowing reaction with 10 mM glycine-HCl, pH1.5 and 25 mM NaOH so that the chip was regenerated and used repeatedly. The sensorgrams obtained as measurement results were analyzed by the 1:1 Langmuir binding model using the BIACORE® Evaluation Software to calculate the binding rate constant ka (L/mol/s) and dissociation rate constant kd (l/s), and the dissociation constant KD (mol/L) was calculated from these values. […] Regarding such interactions, KD values were calculated using the following 1:1 binding model described in BIACORE® T100 Software Handbook BR1006-48 Edition AE.
(§2) The behavior of interacting molecules according to the 1:1 binding model on BIACORE® can be described by Equation 1: Req=C·R max/(KD+C)+RI, wherein, Req is a plot of steady-state binding levels to analyte concentration. C is concentration, RI is bulk refractive index contribution in the sample, and Rmax is analyte binding capacity of the surface. When this equation is rearranged, KD can be expressed as Equation 2: KD=C·Rmax/(Req−RI)−C. KD can be calculated by substituting the values of Rmax, RI, and C into Equation 1 or Equation 2. From the current measurement conditions, RI=0, C=2 μmol/L can be used.

The target in assay [3] is T3, cynomolgus monkey FcγRIIa3 extracellular domain, C-terminal His-tag (cynomolgus monkey).
T3 construct: also called cyno FcγRIIa3; cynoFcgRIIa3
T3 chain: T2 chain with K127I, N130K, H133P, Q142R
As to the kind of experiment: SPR (Biacore); KD of SG1 / KD of variant.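 Also: relative to parent M103205H795-SG1 carrying the SG1 human heavy chain constant region.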 The procedure: as §1, §2
(SPR reads the build-up and loss of mass on a sensor chip optically.)

Assay [4] concerns the target T4, human FcγRIIaH extracellular domain, C-terminal His-tag (human, UniProt P12318 34-217).
T4 construct: also called human FcγRIIa (type H); FcgRIIaH
T4 sequence: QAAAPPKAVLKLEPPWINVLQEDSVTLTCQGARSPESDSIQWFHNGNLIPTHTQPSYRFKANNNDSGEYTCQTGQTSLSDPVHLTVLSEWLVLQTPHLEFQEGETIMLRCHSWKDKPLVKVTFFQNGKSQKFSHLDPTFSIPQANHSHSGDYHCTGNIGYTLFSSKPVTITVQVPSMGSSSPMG
As to the kind of experiment: SPR (Biacore); KD of SG1 / KD of variant.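 Also: relative to parent M103205H795-SG1 carrying the SG1 human heavy chain constant region.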 The protocol:
as §1, §2

Assay [5] concerns the target T5, cynomolgus monkey FcγRIIb extracellular domain, C-terminal His-tag (cynomolgus monkey).
T5 construct: also called cyno FcγRIIb; cynoFcγRIIb
T5 chain: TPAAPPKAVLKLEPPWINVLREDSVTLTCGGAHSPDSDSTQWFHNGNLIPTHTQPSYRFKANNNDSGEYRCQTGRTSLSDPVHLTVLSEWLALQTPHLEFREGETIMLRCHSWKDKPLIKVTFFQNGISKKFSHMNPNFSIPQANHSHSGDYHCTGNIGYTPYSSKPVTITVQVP
As to the kind of experiment: SPR (Biacore); KD of SG1 / KD of variant.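 Also: relative to parent M103205H795-SG1 carrying the SG1 human heavy chain constant region.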 The procedure: as §1, §2

Assay [6] deals with T6, human FcγRIIIaV extracellular domain, C-terminal His-tag (human, UniProt P08637 17-208).
T6 construct: also called human FcgRIIIaV; FcgRIIIaV
T6 sequence (P08637 17-208 F176V): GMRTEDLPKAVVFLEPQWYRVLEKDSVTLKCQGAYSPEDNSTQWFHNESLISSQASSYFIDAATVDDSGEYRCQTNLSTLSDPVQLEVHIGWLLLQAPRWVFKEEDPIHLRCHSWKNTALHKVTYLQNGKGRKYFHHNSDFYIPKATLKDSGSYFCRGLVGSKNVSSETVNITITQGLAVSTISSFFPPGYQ
Nature of the assay: SPR (Biacore); KD of SG1 / KD of variant. The protocol:
as §1, §2

Assay [7] has as its target T7, human FcγRIIb extracellular domain, C-terminal His-tag (human, UniProt P31994 43-217).
T7 construct: also called human FcgRIIb; FcgRIIb
T7 sequence: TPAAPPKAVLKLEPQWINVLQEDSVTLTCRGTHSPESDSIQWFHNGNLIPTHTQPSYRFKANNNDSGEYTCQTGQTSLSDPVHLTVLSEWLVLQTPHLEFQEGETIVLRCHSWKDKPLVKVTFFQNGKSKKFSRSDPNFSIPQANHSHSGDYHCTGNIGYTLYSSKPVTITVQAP
Nature of the assay: SPR (Biacore); KD of SG1 / KD of variant. The protocol: as §1, §2

The target of assay [8] is T8, human FcγRIIaR extracellular domain, C-terminal His-tag (human, UniProt P12318 34-217).
T8 construct: also called human FcγRIIa (type R); FcgRIIaR
T8 chain: T4 sequence with H134R
As to the kind of experiment: SPR (Biacore); KD of SG1 / KD of variant. The protocol:
as §1, §2

Assay [9] concerns the target T9, cynomolgus monkey FcγRIIIaS extracellular domain, C-terminal His-tag (cynomolgus monkey, UniProt Q8SPW2 21-206 at identity 1.00)).
T9 construct: also called cyno FcγRIIIaS; cynoFcγRIIIaS
T9 chain: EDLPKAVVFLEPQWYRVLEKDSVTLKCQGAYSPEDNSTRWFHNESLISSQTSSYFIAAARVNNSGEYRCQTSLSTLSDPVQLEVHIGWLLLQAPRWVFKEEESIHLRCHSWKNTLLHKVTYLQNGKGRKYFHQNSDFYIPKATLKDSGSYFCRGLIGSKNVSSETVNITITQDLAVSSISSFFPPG
Nature of the assay: SPR (Biacore); KD of SG1 / KD of variant. The protocol:
as §1, §2

Numbering of substitutions follows the chain as printed. Numbers in names are those of the source.

T1 sequence (P08637 17-208 F176V): as the sequence (P08637 17-208 F176V) above

B1: M103205H795-MY041/M103202L889-SK1 (antibody, human IgG1, kappa)
heavy: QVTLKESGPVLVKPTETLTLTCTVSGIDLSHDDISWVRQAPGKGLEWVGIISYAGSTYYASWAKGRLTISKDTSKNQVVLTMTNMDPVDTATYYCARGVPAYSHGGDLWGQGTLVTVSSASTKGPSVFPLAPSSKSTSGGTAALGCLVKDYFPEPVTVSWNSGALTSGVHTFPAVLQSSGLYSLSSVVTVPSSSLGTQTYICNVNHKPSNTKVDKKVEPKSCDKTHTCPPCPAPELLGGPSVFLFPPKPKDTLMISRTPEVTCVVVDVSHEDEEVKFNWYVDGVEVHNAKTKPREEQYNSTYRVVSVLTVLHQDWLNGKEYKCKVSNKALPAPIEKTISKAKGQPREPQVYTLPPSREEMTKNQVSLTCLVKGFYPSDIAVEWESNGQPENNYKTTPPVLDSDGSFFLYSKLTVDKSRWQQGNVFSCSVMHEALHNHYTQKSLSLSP
light: DIVMTQSPATLSLSPGERATLSCTSSQSVYHANWLSWFQQKPGQPPKLLIYWASTLAYGVPSRFSGSGSGTDFTLTISSLQPEDAATYYCAGGYGGGRYAFGQGTKVEIKRTVAAPSVFIFPPSDEQLKSGTASVVCLLNNFYPREAKVQWKVDNALQSGNSQESVTEQDSKDSTYSLSSTLTLSKADYEKHKVYACEVTHQGLSSPVTKSFNRGEC
notes: Substitution put into M103205H795-SG1
B1 returned a Kd in assay [1] of 480 nM.

B2: MS_M103205H795-SG1/M103202L889-SK1 (antibody, human IgG1, kappa)
heavy: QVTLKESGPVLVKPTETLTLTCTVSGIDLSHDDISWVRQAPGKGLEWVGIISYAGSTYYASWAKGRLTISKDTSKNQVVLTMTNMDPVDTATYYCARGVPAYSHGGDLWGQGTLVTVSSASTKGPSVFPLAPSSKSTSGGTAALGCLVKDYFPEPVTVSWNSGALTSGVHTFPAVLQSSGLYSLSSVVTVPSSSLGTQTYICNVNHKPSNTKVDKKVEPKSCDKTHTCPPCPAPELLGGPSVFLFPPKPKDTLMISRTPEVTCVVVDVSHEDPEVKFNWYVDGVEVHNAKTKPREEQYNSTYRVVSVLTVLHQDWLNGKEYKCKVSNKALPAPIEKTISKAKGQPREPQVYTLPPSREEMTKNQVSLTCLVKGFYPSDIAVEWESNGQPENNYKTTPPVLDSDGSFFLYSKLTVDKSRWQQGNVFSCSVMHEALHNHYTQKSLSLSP
light: B1 light
notes: Parent of the Fc variants; also called MS1032LO06-SG1
With B2, the “KD fold (SG1 = 1)” value in assay [2], in assay [3], in assay [4], in [5], in [6] and in assay [7] was 1 fold each time. Moreover, the “KD fold (SG1 = 1)” value in assay [8] and in [9] was 1 fold in each case.

B3: M103205H795-MY043/M103202L889-SK1 (antibody, human IgG1, kappa)
heavy: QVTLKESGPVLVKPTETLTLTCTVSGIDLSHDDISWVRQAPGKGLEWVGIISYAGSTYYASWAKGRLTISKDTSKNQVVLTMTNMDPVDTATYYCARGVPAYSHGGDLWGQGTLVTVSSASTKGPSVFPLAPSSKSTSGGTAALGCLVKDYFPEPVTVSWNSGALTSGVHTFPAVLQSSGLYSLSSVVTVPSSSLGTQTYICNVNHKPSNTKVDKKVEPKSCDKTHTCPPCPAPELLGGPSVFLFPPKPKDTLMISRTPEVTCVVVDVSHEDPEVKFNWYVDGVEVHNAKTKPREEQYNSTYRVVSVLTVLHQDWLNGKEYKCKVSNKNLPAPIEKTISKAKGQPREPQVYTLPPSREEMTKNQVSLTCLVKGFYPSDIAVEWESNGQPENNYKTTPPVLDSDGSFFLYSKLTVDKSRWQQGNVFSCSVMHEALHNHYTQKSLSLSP
light: B1 light
notes: as for B1
As for B3, the dissociation constant Kd in [1] was found to be 120 nM.

B4: M103205H795-MY068/M103202L889-SK1 (antibody, human IgG1, kappa)
heavy: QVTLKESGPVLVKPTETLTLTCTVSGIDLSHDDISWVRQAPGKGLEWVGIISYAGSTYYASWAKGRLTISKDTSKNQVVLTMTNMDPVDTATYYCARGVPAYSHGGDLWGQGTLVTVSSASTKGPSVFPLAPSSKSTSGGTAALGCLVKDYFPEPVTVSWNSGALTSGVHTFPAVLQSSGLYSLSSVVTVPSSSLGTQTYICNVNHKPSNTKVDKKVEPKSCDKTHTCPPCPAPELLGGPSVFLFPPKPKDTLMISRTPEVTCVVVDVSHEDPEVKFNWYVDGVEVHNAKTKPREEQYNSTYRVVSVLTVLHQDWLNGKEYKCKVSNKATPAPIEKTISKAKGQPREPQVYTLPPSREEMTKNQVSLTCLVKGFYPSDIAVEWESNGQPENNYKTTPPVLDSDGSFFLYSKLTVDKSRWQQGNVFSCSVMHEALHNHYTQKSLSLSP
light: B1 light
notes: as for B1
In assay [1], B4 gave a Kd of 1400 nM.

B5: M103205H795-MY049/M103202L889-SK1 (antibody, human IgG1, kappa)
heavy: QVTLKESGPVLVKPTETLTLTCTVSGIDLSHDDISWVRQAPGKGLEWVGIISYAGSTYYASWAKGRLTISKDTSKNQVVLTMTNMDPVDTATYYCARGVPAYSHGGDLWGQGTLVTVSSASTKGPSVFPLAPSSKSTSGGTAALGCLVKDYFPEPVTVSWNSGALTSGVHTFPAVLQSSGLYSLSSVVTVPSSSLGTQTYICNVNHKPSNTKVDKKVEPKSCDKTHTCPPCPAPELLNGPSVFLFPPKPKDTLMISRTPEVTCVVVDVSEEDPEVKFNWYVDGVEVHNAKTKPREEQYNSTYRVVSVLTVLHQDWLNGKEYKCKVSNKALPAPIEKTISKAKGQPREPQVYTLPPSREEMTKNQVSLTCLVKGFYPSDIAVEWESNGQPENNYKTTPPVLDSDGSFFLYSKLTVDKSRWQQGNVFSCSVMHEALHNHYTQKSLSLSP
light: B1 light
notes: Substitutions introduced into M103205H795-SG1; expressed with M103202L889-SK1 as light chain
In the case of B5, the “KD fold (SG1 = 1)” value in assay [2] came out at 2.2 fold; in [3], 2.6 fold; in assay [4], 0.4 fold; in assay [5], 2.1 fold; in assay [6] it was 0.1 fold; in [7] it was 3.1 fold. Besides, the “KD fold (SG1 = 1)” value is 0.1 fold in assay [8] and 0.08 fold in assay [9].

B6: M103205H795-MY073/M103202L889-SK1 (antibody, human IgG1, kappa)
heavy: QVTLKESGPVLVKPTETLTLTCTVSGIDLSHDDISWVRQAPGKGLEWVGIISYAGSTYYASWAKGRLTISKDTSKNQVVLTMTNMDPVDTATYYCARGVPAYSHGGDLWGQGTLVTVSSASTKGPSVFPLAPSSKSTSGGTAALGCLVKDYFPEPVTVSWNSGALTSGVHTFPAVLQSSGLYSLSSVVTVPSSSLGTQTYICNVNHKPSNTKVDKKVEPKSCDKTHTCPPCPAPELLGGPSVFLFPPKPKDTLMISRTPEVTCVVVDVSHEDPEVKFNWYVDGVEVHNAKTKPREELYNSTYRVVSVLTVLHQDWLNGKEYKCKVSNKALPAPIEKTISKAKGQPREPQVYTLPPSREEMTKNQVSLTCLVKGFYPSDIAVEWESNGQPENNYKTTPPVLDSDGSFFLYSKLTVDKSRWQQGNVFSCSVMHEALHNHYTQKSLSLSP
light: B1 light
notes: as for B1
In [1], B6 gave a Kd of 340 nM.

B7: M103205H795-MY048/M103202L889-SK1 (P271D) (antibody, human IgG1, kappa)
heavy: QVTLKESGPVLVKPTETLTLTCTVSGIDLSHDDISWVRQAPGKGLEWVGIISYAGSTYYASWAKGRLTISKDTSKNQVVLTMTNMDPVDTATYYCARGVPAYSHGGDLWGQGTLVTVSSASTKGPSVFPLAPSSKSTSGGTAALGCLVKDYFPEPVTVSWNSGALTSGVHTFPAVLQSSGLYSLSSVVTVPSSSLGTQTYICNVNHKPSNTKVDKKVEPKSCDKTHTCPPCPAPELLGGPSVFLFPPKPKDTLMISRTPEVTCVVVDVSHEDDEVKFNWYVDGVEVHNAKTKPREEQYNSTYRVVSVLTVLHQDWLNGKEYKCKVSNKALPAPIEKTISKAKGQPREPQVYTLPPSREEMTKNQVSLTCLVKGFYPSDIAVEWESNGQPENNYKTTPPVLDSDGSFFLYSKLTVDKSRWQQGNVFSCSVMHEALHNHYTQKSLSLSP
light: B1 light
notes: Here the P271D molecule is meant; Put into M103205H795-SG1
Regarding B7, the Kd in assay [1] was 610 nM.

B8: M103205H795-MY069/M103202L889-SK1 (antibody, human IgG1, kappa)
heavy: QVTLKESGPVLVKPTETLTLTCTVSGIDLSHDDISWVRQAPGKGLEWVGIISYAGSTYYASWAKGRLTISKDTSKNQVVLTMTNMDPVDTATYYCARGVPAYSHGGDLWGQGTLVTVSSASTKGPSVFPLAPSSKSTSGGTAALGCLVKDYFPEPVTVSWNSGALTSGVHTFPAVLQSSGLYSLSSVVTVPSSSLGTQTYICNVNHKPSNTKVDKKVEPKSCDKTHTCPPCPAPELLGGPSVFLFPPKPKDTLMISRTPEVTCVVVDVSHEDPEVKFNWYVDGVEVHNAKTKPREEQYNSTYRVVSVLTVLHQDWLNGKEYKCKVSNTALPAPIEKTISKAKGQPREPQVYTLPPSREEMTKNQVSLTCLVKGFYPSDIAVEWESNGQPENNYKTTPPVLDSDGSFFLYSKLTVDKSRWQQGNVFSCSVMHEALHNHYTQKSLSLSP
light: B1 light
notes: as for B1
Consider B8, for which, in [1], the Kd came to 240 nM.

B9: M103205H795-MY071/M103202L889-SK1 (antibody, human IgG1, kappa)
heavy: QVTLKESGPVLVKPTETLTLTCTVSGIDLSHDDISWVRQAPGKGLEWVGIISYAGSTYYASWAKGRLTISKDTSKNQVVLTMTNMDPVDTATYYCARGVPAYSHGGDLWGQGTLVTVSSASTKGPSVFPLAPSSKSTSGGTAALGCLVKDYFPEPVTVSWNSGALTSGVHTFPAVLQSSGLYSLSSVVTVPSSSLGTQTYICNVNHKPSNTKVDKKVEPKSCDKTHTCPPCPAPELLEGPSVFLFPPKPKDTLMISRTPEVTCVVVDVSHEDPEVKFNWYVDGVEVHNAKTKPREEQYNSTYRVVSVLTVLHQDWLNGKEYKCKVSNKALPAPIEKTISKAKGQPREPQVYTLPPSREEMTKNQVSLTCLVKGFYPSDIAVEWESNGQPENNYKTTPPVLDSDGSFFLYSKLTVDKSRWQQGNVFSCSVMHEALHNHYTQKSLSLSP
light: B1 light
notes: as for B1
In assay [1], B9 displayed an equilibrium dissociation constant (Kd) of 510 nM.

B10: M103205H795-MY072/M103202L889-SK1 (antibody, human IgG1, kappa)
heavy: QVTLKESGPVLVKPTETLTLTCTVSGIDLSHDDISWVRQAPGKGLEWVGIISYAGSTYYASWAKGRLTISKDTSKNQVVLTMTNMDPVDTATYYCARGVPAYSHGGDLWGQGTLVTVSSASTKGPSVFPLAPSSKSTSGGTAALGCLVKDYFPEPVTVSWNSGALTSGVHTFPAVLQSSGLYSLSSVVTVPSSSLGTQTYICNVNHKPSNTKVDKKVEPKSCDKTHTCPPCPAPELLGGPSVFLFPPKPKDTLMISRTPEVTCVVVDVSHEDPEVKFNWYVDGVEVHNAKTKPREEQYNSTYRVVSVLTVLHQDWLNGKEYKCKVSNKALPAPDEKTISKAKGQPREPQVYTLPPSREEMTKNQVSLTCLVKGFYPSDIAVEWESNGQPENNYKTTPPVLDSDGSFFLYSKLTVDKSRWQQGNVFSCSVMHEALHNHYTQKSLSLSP
light: B1 light
notes: as for B1
Consider B10, for which binding in [1] was put at a Kd of 120 nM.
